In the supplement of paper PMC10567573:

B1: SPSB4 (parent)
chain: LDMDEGTLSFIVDGQYLGVAFRGL

Variants of: B1
Assay: protein stability index of a GFP-peptide fusion (GPS, HEK-293T) (PSI 1-6); higher = more stable
Details: c terminus: a fixed tail appended
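Note: lentivirally expressed fusions sorted by FACS into six bins by GFP to DsRed ratio, PSI derived from sequencing read proportions per bin multiplied by bin number.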

| Variant | protein stability index |
| --- | --- |
| G23R | 1.88 |
| G23I | 2.48 |
| G23K | 1.97 |
| G23T | 2.5 |
| G23M | 2.84 |
| G23E | 2.42 |
| G23S | 3.28 |
| G18I | 4.2 |
| G18A | 2.82 |
| G18M | 2.85 |
| G18H | 2.93 |
| G18Q | 1.42 |
| G18K | 1.8 |
| G18Y | 3.25 |
| G18V | 2.45 |
| G18W | 1.91 |
| G18E | 2.06 |
| G18C | 2.03 |
| L24V | 3.18 |
| L24Y | 2.76 |
| L24E | 1.48 |
| L24R | 2.11 |
| L24W | 2.54 |
| L24F | 3.21 |

| Variant | protein stability index |
| --- | --- |
| L24T | 2.67 |
| V12W | 3.35 |
| V12N | 1.75 |
| V12L | 1.26 |
| V12P | 1.7 |
| V12K | 1.79 |
| V12F | 1.92 |
| V12E | 2.01 |
| V12H | 1.62 |
| V12R | 1.84 |
| V12A | 1.96 |
| F10V | 2.38 |
| F10R | 2.21 |
| F10T | 2.44 |
| F10H | 2.14 |
| F10D | 2.79 |
| F10M | 1.73 |
| F10L | 1.76 |
| F10P | 2.3 |
| F10S | 2.13 |
| G14M | 2.88 |
| G14Y | 2.38 |
| G14I | 3.85 |
| G14R | 2.65 |

| Variant | protein stability index |
| --- | --- |
| G14D | 2.32 |
| G6C | 3.03 |
| G6E | 1.98 |
| G6I | 2.38 |
| G6H | 2.65 |
| G6A | 3.24 |
| D13F | 3.41 |
| D13H | 2.94 |
| D13M | 2.37 |
| D13C | 3.49 |
| D13N | 2.39 |
| D13G | 2.8 |
| Y16H | 2.37 |
| Y16D | 1.55 |
| Y16G | 1.78 |
| Y16N | 1.59 |
| Y16C | 2.12 |
| Y16Q | 1.26 |
| I11Y | 2.58 |
| I11N | 2.49 |
| I11V | 1.47 |
| I11K | 1.94 |
| I11C | 3.29 |
| I11H | 3.77 |

| Variant | protein stability index |
| --- | --- |
| F21A | 1.7 |
| F21M | 1.43 |
| F21P | 1.89 |
| D4V | 2.95 |
| D4T | 2.45 |
| D4P | 1.66 |
| D4H | 3.59 |
| D4I | 3.21 |
| D4K | 2.15 |
| D4S | 2.52 |
| R22C | 2.55 |
| R22G | 2.69 |
| R22N | 2.46 |
| R22P | 2.25 |
| R22H | 3.23 |
| R22Q | 2.1 |
| R22S | 2.46 |
| L17I | 3.23 |
| L17M | 1.67 |
| L17V | 3.15 |
| L17F | 3.76 |
| L17D | 2.29 |
| L17P | 2.51 |
| L17N | 1.51 |

| Variant | protein stability index |
| --- | --- |
| L17E | 1.79 |
| L17G | 1.47 |
| L17A | 2.15 |
| S9Q | 2.01 |
| S9N | 2.9 |
| S9V | 1.81 |
| S9K | 1.99 |
| S9H | 2.95 |
| S9T | 2.45 |
| E5H | 3.53 |
| E5P | 1.42 |
| E5M | 2.56 |
| E5S | 2.79 |
| E5I | 3.72 |
| E5V | 3.95 |
| E5W | 3.01 |
| E5D | 2.77 |
| E5Q | 2.7 |
| T7L | 1.99 |
| T7A | 2.34 |
| T7I | 2.18 |
| T7E | 1.31 |
| T7V | 1.86 |
| A20K | 2.11 |

| Variant | protein stability index |
| --- | --- |
| A20N | 1.68 |
| A20M | 2.48 |
| A20I | 2.13 |
| A20H | 1.89 |
| A20E | 1.88 |
| A20Y | 2.4 |
| A20Q | 1.86 |
| A20R | 2.47 |
| A20S | 2 |
| L1P | 1.96 |
| L1W | 2.76 |
| L1R | 2.09 |
| L1S | 1.71 |
| L1E | 1.66 |
| L1G | 1.65 |
| L1V | 2.51 |
| L1M | 2.75 |
| L1N | 1.28 |
| L1C | 3.04 |
| L8T | 1.87 |
| L8R | 2.11 |
| L8K | 1.47 |
| L8H | 1.55 |
| L8C | 3.35 |

| Variant | protein stability index |
| --- | --- |
| L8I | 2.43 |
| L8F | 2.3 |
| L8W | 3.21 |
| M3V | 2.67 |
| M3S | 1.77 |
| M3A | 2.05 |
| M3C | 2.17 |
| M3F | 2.33 |
| M3I | 1.33 |
| D2T | 3.9 |
| D2L | 2.87 |
| D2A | 2.04 |
| D2Q | 1.65 |
| Q15I | 2.02 |
| Q15A | 2.87 |
| Q15E | 1.39 |
| Q15D | 2.33 |
| V19Q | 1.94 |
| V19W | 2.04 |
| V19I | 2.77 |
| V19C | 2.33 |
| V19K | 2.1 |
| V19L | 1.94 |
